± gives the standard deviation of the averaged measurements.
Tested on: ATP
Test: switch fluorescence ratio, 500 uM ATP over buffer (Cy3 cluster intensity, sum of 5 cycles each) (fold (ratio)); higher = stronger signal-on switching upon ATP binding; sequences stand for … in TCGTCGGCAGCGTCAGATGTGTATAAGAGACAGTTTTTTTTTTTTTTTTTTTTTTTTT…TC
Settings: aptamer strand: ATP DNA aptamer (quencher-CACCTGGGGGAGTATTGCGGAGGAAGG + anchor), 100 nM annealed; ATP concentration: 500 uM
Method in brief: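 Values give the fluorescence ratio for each switch-domain sequence, averaged from per-cluster ratios of summed target-cycle to summed buffer-cycle Cy3 intensity. The Cy3-labelled switching-strand clusters sat on a modified Illumina MiSeq flow-cell, were annealed to 100 nM quencher-labelled ATP aptamer, and were imaged in selection buffer, then after 15 min with 500 uM ATP at 22 °C. Five cycles ran with NaOH stripping and re-annealing between them, and clusters outside 100-1000 RFU were excluded.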
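Note: ATP exposure 15 min at 22 °C before imaging.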

Row | Sequence | switch fluorescence ratio
1 | CTACATGAAA | 1.006 ± 0.0034
2 | CTACGAAGGG | 1.04 ± 0.021
3 | CTACGTCATT | 1.41 ± 0.095
4 | CTACTATAAT | 1.04 ± 0.043
5 | CTAGAAGCGG | 0.983 ± 0.013
6 | CTAGACAGGG | 1.028 ± 0.0022
7 | CTAGACCCGG | 0.988 ± 0.027
8 | CTAGAGGCGA | 1.03 ± 0.026
9 | CTAGAGTGAG | 1.02 ± 0.049
10 | CTAGATCGAT | 0.992 ± 0.022
11 | CTAGATCGGT | 0.982 ± 0.051
12 | CTAGATGTTG | 0.977 ± 0.0027
13 | CTAGCGGTCG | 0.997 ± 0.0051
14 | CTAGCTTAGC | 0.9902 ± 0.0056
15 | CTAGGACTTG | 0.945 ± 0.026
16 | CTAGGATTAA | 0.985 ± 0.013
17 | CTAGGCACAT | 1.1 ± 0.016
18 | CTAGGGAAAC | 1.002 ± 0.009
19 | CTAGGGCACA | 1.07 ± 0.1
20 | CTAGGGCATG | 0.98 ± 0.016
21 | CTAGGGGACA | 1.04 ± 0.029
22 | CTAGGGGGTC | 0.993 ± 0.046
23 | CTAGGGGGTT | 1 ± 0.034
24 | CTAGGGGTAT | 1.03 ± 0.14
25 | CTAGGGTTCT | 1.03 ± 0.019
26 | CTAGGTCTGT | 1 ± 0.011

Row | Sequence | switch fluorescence ratio
27 | CTAGGTGGTT | 0.991 ± 0.04
28 | CTAGGTTTTG | 0.995 ± 0.047
29 | CTAGTAAGCG | 0.998 ± 0.048
30 | CTAGTCCTGA | 0.986 ± 0.043
31 | CTAGTGACTA | 0.987 ± 0.032
32 | CTAGTGAGTT | 0.999 ± 0.023
33 | CTAGTGGGTT | 0.973 ± 0.02
34 | CTAGTTATGA | 1.02 ± 0.016
35 | CTAGTTGGTC | 0.981 ± 0.033
36 | CTAGTTTTTT | 0.9893 ± 0.0062
37 | CTATAATCTA | 0.976 ± 0.041
38 | CTATATACCA | 1.06 ± 0.043
39 | CTATATTAGT | 1 ± 0.045
40 | CTATCTTTAG | 0.9891 ± 0.0043
41 | CTATGAGTGA | 1.01 ± 0.018
42 | CTATGATCTT | 0.992 ± 0.012
43 | CTATGATTGT | 0.977 ± 0.04
44 | CTATGCTCAC | 1.45 ± 0.041
45 | CTATGGCTGG | 0.981 ± 0.017
46 | CTATGGGGGA | 1.04 ± 0.02
47 | CTATGTTGTT | 1 ± 0.018
48 | CTATTAAGGT | 0.98 ± 0.021
49 | CTATTACGTC | 0.984 ± 0.045
50 | CTATTATGTG | 0.985 ± 0.043
51 | CTATTATTCG | 1.01 ± 0.045
52 | CTATTTGAGG | 0.9825 ± 0.004

Row | Sequence | switch fluorescence ratio
53 | CTCAATGACT | 1.02 ± 0.016
54 | CTCAATGTAT | 0.989 ± 0.032
55 | CTCAATTTTA | 0.9743 ± 0.006
56 | CTCACCACGA | 1.09 ± 0.057
57 | CTCACTAGCG | 1.02 ± 0.031
58 | CTCACTGCAT | 1.46 ± 0.11
59 | CTCAGCAGTC | 1.2 ± 0.034
60 | CTCAGCCAGT | 1.29 ± 0.056
61 | CTCAGGGATT | 1.07 ± 0.033
62 | CTCAGTAGGG | 0.975 ± 0.024
63 | CTCAGTATCG | 1.012 ± 0.002
64 | CTCATAACAT | 1.01 ± 0.032
65 | CTCATAGGGA | 0.983 ± 0.024
66 | CTCATTTATT | 0.98 ± 0.064
67 | CTCCAGACGA | 1.47 ± 0.083
68 | CTCCGGCGGG | 1.18 ± 0.057
69 | CTCCGGGAAA | 1.214 ± 0.0036
70 | CTCCTGGCCA | 1.13 ± 0.014
71 | CTCCTTAGTT | 1.05 ± 0.035
72 | CTCCTTTTTC | 0.976 ± 0.057
73 | CTCGACATTT | 1.02 ± 0.027
74 | CTCGATAGTA | 0.9741 ± 0.003
75 | CTCGCAGGGG | 1.37 ± 0.2
76 | CTCGCATGGT | 1.37 ± 0.024
77 | CTCGCCGATA | 1.03 ± 0.031
78 | CTCGCGGGTG | 1.14 ± 0.11

Row | Sequence | switch fluorescence ratio
79 | CTCGGATTGG | 1 ± 0.015
80 | CTCGGCCGAG | 0.982 ± 0.016
81 | CTCGGGGGGG | 0.998 ± 0.028
82 | CTCGGGTGGT | 0.997 ± 0.061
83 | CTCGTAAACG | 1 ± 0.02
84 | CTCGTATCAG | 1.01 ± 0.021
85 | CTCGTCCTTA | 1.019 ± 0.0051
86 | CTCGTCGTAT | 1.06 ± 0.05
87 | CTCGTGTTCG | 0.984 ± 0.013
88 | CTCGTGTTGG | 0.989 ± 0.018
89 | CTCGTTCCTG | 1 ± 0.031
90 | CTCGTTCTTT | 1 ± 0.031
91 | CTCTAACAGC | 1.08 ± 0.022
92 | CTCTAACGG | 0.982 ± 0.089
93 | CTCTAAGGC | 1.094 ± 0.0084
94 | CTCTATATTG | 1.008 ± 0.0073
95 | CTCTATTGAT | 0.997 ± 0.017
96 | CTCTATTTGA | 0.977 ± 0.016
97 | CTCTCGAAGC | 1.1577 ± 0.0001
98 | CTCTGAGAGG | 0.9719 ± 0.0043
99 | CTCTGATAGC | 1.23 ± 0.013
100 | CTCTGTGACG | 1.03 ± 0.012
101 | CTCTGTGGTG | 1.02 ± 0.048
102 | CTCTGTGTTT | 0.9924 ± 0.00037
103 | CTCTGTTGTG | 0.961 ± 0.012
104 | CTCTTAGTTT | 0.999 ± 0.023

Row | Sequence | switch fluorescence ratio
105 | CTCTTGGGCT | 0.971 ± 0.089
106 | CTCTTGTATC | 1.05 ± 0.063
107 | CTCTTTGCAG | 1.086 ± 0.0044
108 | CTGAAGAATT | 1.03 ± 0.015
109 | CTGACCTGTA | 1.093 ± 0.0021
110 | CTGACGTGCT | 1.062 ± 0.004
111 | CTGAGCAAG | 2.34 ± 0.28
112 | CTGAGCGATT | 1.41 ± 0.032
113 | CTGAGCTTCG | 1 ± 0.0032
114 | CTGAGGGGTG | 1.01 ± 0.037
115 | CTGAGGTGGT | 0.991 ± 0.046
116 | CTGAGGTTAT | 1.04 ± 0.038
117 | CTGAGTATGC | 1.05 ± 0.026
118 | CTGAGTTTAT | 0.997 ± 0.023
119 | CTGATACATT | 0.9715 ± 0.0069
120 | CTGATACTGG | 0.997 ± 0.045
121 | CTGATAGGAT | 1.22 ± 0.37
122 | CTGATGCCGT | 1.08 ± 0.057
123 | CTGATGCGGG | 1.06 ± 0.062
124 | CTGATGTGGG | 0.964 ± 0.015
125 | CTGATTTTCC | 1.01 ± 0.061
126 | CTGCAAGCGG | 1.28 ± 0.057
127 | CTGCAGGGGG | 1.05 ± 0.044
128 | CTGCAGTTGA | 1.04 ± 0.024
129 | CTGCATGGTT | 1.01 ± 0.016
130 | CTGCCCTATT | 1 ± 0.023

Row | Sequence | switch fluorescence ratio
131 | CTGCGACTGT | 1.026 ± 0.0099
132 | CTGCGACTTT | 1.02 ± 0.035
133 | CTGCGAGGAT | 1.01 ± 0.034
134 | CTGCGGGAGG | 1.008 ± 0.0024
135 | CTGCGGGGGA | 1.03 ± 0.037
136 | CTGCGGGTTA | 1.01 ± 0.015
137 | CTGCGTCTAA | 1.03 ± 0.027
138 | CTGCGTGATG | 1.03 ± 0.011
139 | CTGCTAGGCT | 1.01 ± 0.028
140 | CTGCTTGGGA | 1.012 ± 0.0033
141 | CTGGAATGTG | 1.003 ± 0.01
142 | CTGGACCTTG | 0.977 ± 0.026
143 | CTGGACGCTG | 1.01 ± 0.017
144 | CTGGAGCGCT | 1.22 ± 0.054
145 | CTGGATCCTT | 1.05 ± 0.017
146 | CTGGATGTTA | 0.999 ± 0.024
147 | CTGGCACAGA | 0.988 ± 0.019
148 | CTGGCACTGG | 1.016 ± 0.0056
149 | CTGGCAGGGC | 1.07 ± 0.016
150 | CTGGCATGGA | 1.01 ± 0.021
151 | CTGGCCGGGC | 1.03 ± 0.022
152 | CTGGCGACAC | 1.39 ± 0.14
153 | CTGGCTACTA | 1.03 ± 0.031

From the supplement of paper PMC10126150
